We go through eight molecules from patent US20050255504A1, “Method of detecting an increased susceptibility to breast cancer” (priority 2004, published 2005).

One data set deals with T1, COMT (Homo sapiens, UniProt P21964).
T1 construct: made in house; host or cells: Escherichia coli DH5alphaF'Iq
T1 sequence (P21964 1-221 isoform P21964-2): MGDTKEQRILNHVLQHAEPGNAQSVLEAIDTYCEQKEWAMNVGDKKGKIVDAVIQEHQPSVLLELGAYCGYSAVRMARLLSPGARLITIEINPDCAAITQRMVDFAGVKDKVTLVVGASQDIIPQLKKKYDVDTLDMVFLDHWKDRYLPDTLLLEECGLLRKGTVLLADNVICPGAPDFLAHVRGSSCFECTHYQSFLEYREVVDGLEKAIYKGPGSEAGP
The experiment in a line: Assay of COMT activity: methylation of catechol estrogens by purified recombinant His-COMT. As to conditions: for formation as product of COMT methylation of 4-OHE2 / 4-OHE1: GC/MS detection of product; for pattern of the rates of methylation versus substrate concentration: substrate of COMT, FIG. 9. Format: biochemical. How it is done:
Assay of COMT Activity. Purified recombinant His-COMT (300 pmol) was reconstituted in 0.5 ml of 100 mM KPO4, pH 7.4, containing 5 mM MgCl2, 10 mM (β-mercaptoethanol, and 200 μM SAM. Reactions were initiated by adding varying concentrations of each individual catechol estrogen (2, 3, 6, 9, 12, 15, 20, 40, 60, 80, and 100 μM). Blanks contained all compounds except SAM. Reactions proceeded for 10 min at 37° C. with gentle shaking and then were terminated by addition of 2 ml CH2Cl2. To determine COMT activity in breast cancer cells, ZR-75 and MCF-7 cells were harvested at confluency and homogenized in 100 mM KP04, pH 7.4, 5 mM MgCl2, 10 mM β-mercaptoethanol. Following ultracentrifugation of the cell homogenate (110,000 g, 30 min, 4° C.), the supernatant cytosol was divided into aliquots for ICELISA, protein determination (BCA assay; Pierce, Rockford, Ill.), and COMT assay. The latter was carried out in the presence of 200 μM SAM and 100 μM catechol estrogen for 20 min at 37° C. and then terminated by addition of CH2Cl2. The concentration of endogenous catechol and methoxy estrogens was below the limit of detection by gas chromatography/mass spectrometry.
Extraction and Gas Chromatography/Mass Spectrometry Analysis of Catechol Estrogens. A deuterated internal standard (100 μl of 8 mg/liter E2-d4 in methanol) was added and all estrogens extracted into the CH2Cl2 by vortex mixing for 30 s. 1.5 ml of the CH2Cl2 fraction was evaporated to dryness under air and volatile TMS derivatives prepared by heating the residue with 100 μl of 50% NO-bis(trimethylsilyl)trifluoroacetamide/1% trimethyl chlorosilane in acetonitrile at 56° C. for 30 min. The TMS derivatives of the estrogen metabolites were separated by gas chromatography (H—P 5890, Hewlett-Packard, Wilmington, Del.) on a 5% phenyl methyl silicone stationary phase fused silica capillary column (30 m×0.2 mm×0.5 μm film, HP5; Hewlett-Packard). Helium carrier gas was used at a flow of 1 ml/min. The injector was operated at 250° C., with 2 μl injected in the splitless mode, with a purge (60 ml/min helium) time of 0.6 min. The oven temperature was held at 180° C. for 0.5 min, then raised at 6° C./min to 250° C. where it was held for 17 min, then raised to 300° C. at 8° C./min to give a total run time of 35.42 min. This program permitted adequate separation of a wide range of estrogen metabolites. Retention times (in min) for the TMS derivatives were E1 20.13, E2 and E2-d4 21.89, 4-MeOE1 23.52, 2-MeO-3-MeOE1 (underivatized) 23.75, 2-OH-3-MeOE1 24.87, 2-MeOE1 25.2, 4-MeOE2 25.78, 2-OHE1 and 2-MeO-3-MeOE2 26.19, 2-OH-3-MeOE2 26.9, 2-MeOE2 27.18, 4-OHE1 27.27, 6a-OHE2 27.29, 2-OHE2 27.44, 4-OHE2 28.06, E3 28.38. The E1 mass spectrometer (H—P 5970) was operated in the selected ion monitoring mode from 18 to 30 min. Ions monitored were TMS-E1 342, 257, 343; TMS2-E2-d4 420, 421, 287; TMS2-E2 416, 417, 285; TMS-4-MeOE1, TMS-2-OH-3-MeOE1, TMS-2-MeOE1 and TMS-3-MeO-4-OHE1 372, 373, 342; 2-MeO-3-MeOE1 314, 315, 229; TMS2-4-MeOE2, TMS2-2-OH-3-MeOE2, TMS2-2-MeOE2 and TMS2-3-MeO-4-OHE2 446, 447, 315; TMS2-2-OHE1 430, 431, 432; TMS-2-MeO-3-MeOE2 388, 389, 257; TMS2-4-OHE1 430, 431, 345; TMS2-6α-OHE2 414, 283, 309; TMS3-2-OHE2 and TMS3-4-OHE2 504, 505, 373; TMS3-E3 504, 505, 311 (FIG. 7). The instrument was calibrated by simultaneous preparation of an 11-point calibration over the range 0-22 nmol/tube of each compound. Sensitivity was determined to be between 0.02 and 0.04 nmol/tube (400-800 finol on column) for the various compounds. […] Absolute extraction efficiency for E2,2-OH-E2 and 4-OH-E2 at 3.5 nmol/tube was 119, 96, and 107% assessed by comparison to injections of spiked solvent samples onto the gas chromatograph. Internal standard added prior to extraction compensated for deviation from 100% recovery for all investigated compounds.
Statistical Analysis. […]

The next data set relates to renal DNA. As to conditions: hamster, in vivo; cited from earlier work.
A further data set concerns CYP1B1. The experiment in a line: Assay of CYP1B1 E2 hydroxylation activity (purified recombinant enzyme, GC/MS of products). The data set is classed as biochemical, human. As to conditions: E2 16a-hydroxylation. As to the method:
Assay of CYP1B1 E2 Hydroxylation Activity. […] An NADPH-generating system consisting of 5 mM glucose 6-phosphate and 0.5 U of glucose-6-phosphate dehydrogenase/ml was added and reactions initiated by adding NADP+ to a final concentration of 0.5 mM. Reactions proceeded for 10 min at 37° C. with gentle shaking and then were terminated by addition of 2 ml CH2Cl2. Extraction and Gas Chromatography/Mass Spectrometry Analysis of E2 and Metabolites. […] Hewlett-Packard). Helium carrier gas was used at a flow of 1 ml/min. The injector was operated at 250° C., with […] injected in the splitless mode, with a purge (60 ml/min helium) time of 0.6 min. The oven temperature was held at 180° C. for 0.5 min, then raised at 6° C./min to 250° C. where it was held for 17 min, then raised to 300° C. at 8° C./min to give a total run time of 35.42 min. […] The E1 mass spectrometer (H-P 5970) was operated in the selected ion monitoring mode from 18 to 34 min. […] TMS2-E2 416, 285, 326; […]2 504, 373, 325; TMS3-16_-OH-E2 345, 311, 504. […] Internal standard added prior to extraction compensated for deviation from 100% recovery. Statistical Analysis. Kinetic parameters (Km and kcat) were determined by nonlinear regression analysis using the computer program GraphPad PRISM (San Diego, Calif.).

Regarding `COc1ccc2c(c1O)CC[C@@H]1[C@@H]2CC[C@]2(C)C(=O)CC[C@@H]12` [Variant 3-MeO-4-OHE1], on COMT, the “formation as product of COMT methylation of 4-OHE2 / 4-OHE1” value is given as “not observed”.

Consider `C[C@]12CC[C@@H]3c4cc(O)c(O)cc4CC[C@H]3[C@@H]1CC[C@@H]2O` [Variant 2-OHE2], for which the “pattern of the rates of methylation versus substrate concentration” value on COMT is “typical hyperbolic patterns”. Besides, the “levels of the oxidized base 8-hydroxy-deoxyguanosine in renal DNA” value in the data set on renal DNA is given as “did not cause oxidative DNA damage”.

On to `COc1ccc2c(c1O)CC[C@@H]1[C@@H]2CC[C@]2(C)[C@@H](O)CC[C@@H]12` [Variant 3-MeO-4-OHE2], for which, on COMT, the “formation as product of COMT methylation of 4-OHE2 / 4-OHE1” value is reported as “not observed”.

With `C[C@]12CC[C@@H]3c4cc(O)c(O)cc4CC[C@H]3[C@@H]1CCC2=O` [Variant 2-OHE1], at COMT, the “pattern of the rates of methylation versus substrate concentration” value is reported as “typical hyperbolic patterns”.

B1: Variant 4: recombinant CYP1B1 variant: 48Arg, 119Ala, 432Val, 453Ser (protein, UniProt Q16678 1-543, looked up, variant N453S)
Cytochrome P450 1B1: MGTSLSPNDPWPLNPLSIQQTTLLLLLSVLATVHVGQRLLRQRRRQLRSAPPGPFAWPLIGNAAAVGQAAHLSFARLARRYGDVFQIRLGSCPIVVLNGERAIHQALVQQGSAFADRPAFASFRVVSGGRSMAFGHYSEHWKVQRRAAHSMMRNFFTRQPRSRQVLEGHVLSEARELVALLVRGSADGAFLDPRPLTVVAVANVMSAVCFGCRYSHDDPEFRELLSHNEEFGRTVGAGSLVDVMPWLQYFPNPVRTVFREFEQLNRNFSNFILDKFLRHCESLRPGAAPRDMMDAFILSAEKKAAGDSHGGGARLDLENVPATITDIFGASQDTLSTALQWLLLLFTRYPDVQTRVQAELDQVVGRDRLPCMGDQPNLPYVLAFLYEAMRFSSFVPVTIPHATTANTSVLGYHIPKDTVVFVNQWSVNHDPLKWPNPENFDPARFLDKDGLISKDLTSRVMIFSVGKRRCIGEELSKMQLFLFISILAHQCDFRANPNEPAKMNFSYGLTIKPKSFKVNVTLRESMELLDSAVQNLQAKETCQ
B1: the 16a-OH-Estradiol kcat in the data set with CYP1B1 was 0.0065 ± 0.00033 s⁻¹.

B2: Variant 2: recombinant CYP1B1 variant: 48Arg, 119Ser, 432Val, 453Asn (protein, UniProt Q16678 1-543, looked up, variant A119S)
Cytochrome P450 1B1: MGTSLSPNDPWPLNPLSIQQTTLLLLLSVLATVHVGQRLLRQRRRQLRSAPPGPFAWPLIGNAAAVGQAAHLSFARLARRYGDVFQIRLGSCPIVVLNGERAIHQALVQQGSAFADRPSFASFRVVSGGRSMAFGHYSEHWKVQRRAAHSMMRNFFTRQPRSRQVLEGHVLSEARELVALLVRGSADGAFLDPRPLTVVAVANVMSAVCFGCRYSHDDPEFRELLSHNEEFGRTVGAGSLVDVMPWLQYFPNPVRTVFREFEQLNRNFSNFILDKFLRHCESLRPGAAPRDMMDAFILSAEKKAAGDSHGGGARLDLENVPATITDIFGASQDTLSTALQWLLLLFTRYPDVQTRVQAELDQVVGRDRLPCMGDQPNLPYVLAFLYEAMRFSSFVPVTIPHATTANTSVLGYHIPKDTVVFVNQWSVNHDPLKWPNPENFDPARFLDKDGLINKDLTSRVMIFSVGKRRCIGEELSKMQLFLFISILAHQCDFRANPNEPAKMNFSYGLTIKPKSFKVNVTLRESMELLDSAVQNLQAKETCQ
Turning to B2, the 16a-OH-Estradiol kcat in the data set with CYP1B1 is 0.00567 ± 0.00033 s⁻¹.

B3: Variant 1: recombinant CYP1B1 variant: 48Gly, 119Ala, 432Val, 453Asn (protein, UniProt Q16678 1-543, looked up, variant R48G)
Cytochrome P450 1B1: MGTSLSPNDPWPLNPLSIQQTTLLLLLSVLATVHVGQRLLRQRRRQLGSAPPGPFAWPLIGNAAAVGQAAHLSFARLARRYGDVFQIRLGSCPIVVLNGERAIHQALVQQGSAFADRPAFASFRVVSGGRSMAFGHYSEHWKVQRRAAHSMMRNFFTRQPRSRQVLEGHVLSEARELVALLVRGSADGAFLDPRPLTVVAVANVMSAVCFGCRYSHDDPEFRELLSHNEEFGRTVGAGSLVDVMPWLQYFPNPVRTVFREFEQLNRNFSNFILDKFLRHCESLRPGAAPRDMMDAFILSAEKKAAGDSHGGGARLDLENVPATITDIFGASQDTLSTALQWLLLLFTRYPDVQTRVQAELDQVVGRDRLPCMGDQPNLPYVLAFLYEAMRFSSFVPVTIPHATTANTSVLGYHIPKDTVVFVNQWSVNHDPLKWPNPENFDPARFLDKDGLINKDLTSRVMIFSVGKRRCIGEELSKMQLFLFISILAHQCDFRANPNEPAKMNFSYGLTIKPKSFKVNVTLRESMELLDSAVQNLQAKETCQ
On to B3, for which, in the data set on CYP1B1, the 16a-OH-Estradiol kcat was 0.00933 ± 0.00067 s⁻¹.

B4: Wild type: purified recombinant His-tagged wild type CYP1B1: 48Arg, 119Ala, 432Val, 453Asn (protein)
chain: HHHHHHLLSVLATVHVGQRLLRQRRRQLRSAPPGPFAWPLIGNAAAVGQAAHLSFARLARRYGDVFQIRLGSCPIVVLNGERAIHQALVQQGSAFADRPAFASFRVVSGGRSMAFGHYSEHWKVQRRAAHSMMRNFFTRQPRSRQVLEGHVLSEARELVALLVRGSADGAFLDPRPLTVVAVANVMSAVCFGCRYSHDDPEFRELLSHNEEFGRTVGAGSLVDVMPWLQYFPNPVRTVFREFEQLNRNFSNFILDKFLRHCESLRPGAAPRDMMDAFILSAEKKAAGDSHGGGARLDLENVPATITDIFGASQDTLSTALQWLLLLFTRYPDVQTRVQAELDQVVGRDRLPCMGDQPNLPYVLAFLYEAMRFSSFVPVTIPHATTANTSVLGYHIPKDTVVFVNQWSVNHDPLKWPNPENFDPARFLDKDGLINKDLTSRVMIFSVGKRRCIGEELSKMQLFLFISILAHQCDFRANPNEPAKMNFSYGLTIKPKSFKVNVTLRESMELLDSAVQNLQAKETCQ
For the molecule B4, the 16a-OH-Estradiol kcat in the data set with CYP1B1, in the data set with CYP1B1 (listed as Wild type CYP1B1) and in the data set on CYP1B1 (listed as wild type CYP1B1) was 0.005 ± 0.00033 s⁻¹ throughout.
